These are literature values, as cited in paper PMC6983177.

For one data set, the target named is pCDC25c (Homo sapiens) (UniProt P30307).
In data set [1] the target is RNA polymerase II CTD phosphopeptide (Homo sapiens) (UniProt P24928). Kind of data set: isothermal titration calorimetry. A general note: ITC needs no label: the signal is the heat of the interaction.

Sequence of UniProt P30307 (P30307 2-473): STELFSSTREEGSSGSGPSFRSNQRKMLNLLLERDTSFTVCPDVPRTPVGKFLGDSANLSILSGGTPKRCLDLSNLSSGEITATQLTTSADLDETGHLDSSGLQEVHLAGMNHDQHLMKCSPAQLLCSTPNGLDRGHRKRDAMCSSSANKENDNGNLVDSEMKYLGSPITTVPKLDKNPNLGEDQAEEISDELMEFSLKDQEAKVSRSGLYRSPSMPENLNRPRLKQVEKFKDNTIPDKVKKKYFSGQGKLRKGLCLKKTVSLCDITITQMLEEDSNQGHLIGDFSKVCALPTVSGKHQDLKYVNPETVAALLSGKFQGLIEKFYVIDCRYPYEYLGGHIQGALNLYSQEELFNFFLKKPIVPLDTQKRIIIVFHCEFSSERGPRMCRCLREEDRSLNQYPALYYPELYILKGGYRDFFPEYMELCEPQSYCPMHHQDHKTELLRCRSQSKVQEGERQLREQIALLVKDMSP

In general, Kd refers to the equilibrium constant for the complex coming apart. With Pin1 WW (from UniProt Q13526), the Kd is 8 µM with pCDC25c (Homo sapiens) and 35 µM in data set [1].
